Among the data in a protein production outcome set (Wang et al. 2014) are protein production values, retold here.

The series can be described thus: label from the status in PepcDB records.

On to “MACARAWRTMSPCGGKQVHPLQECGLCSAPAGVARTHARQGADPMLPELGTFLLVLALLVALVQAVVPLAGAQRGRSSWMAVARPAAMVQLALIASAFAVLTHAFLVQDFSVRYVAENSNSLLPMMYRYSAVWGAHEGSLLLWTLVLALWTGAVAIWSRQLPAHVIARVLGVMALVSIGFLAFLLFTSNPFARLFPVPLEGGDLNPLLQDPGLIVHPPMLYCGYVGFAVPFAFAIAALLEGRMDARWLRWTRPWTNVAWSMLTVGIALGSWWAYYELGWGGWWFWDPVENASFMPWLVGTALLHSQAVTEKRGSFASWTLLLAIAAFALSLLGTFLVRSGVLTSVHSFAADPSRGLFILVFLLLVVGGSLVLYALRAPRLSLVDDPRRAFAGSSRETLLLLNNLLLTCACAMVLLGTLYPLLADALGLGKLSVGPPYFGTLFVVLMAPLVALVPFGPLTRWQREQASRPLAMLAPWAGLALAAGVLAWFAAPQGQLKAAVGVAGAAWVLLGTARFLWTRRAAKGRKFTPEMLGMVLAHLGVAVFLSGALLVEGLSLQREVALAPGQQVQIGRYALHFDGLEELRGPNYVSDRANLQVLKDDAPVGVVHAEKRRYASGGQTLTEAAIRPGPFGDLYVALGEPLGNQAWAVRVHLKPFVRWIWLGALLMALGGLVTAADRRFRRSPEIQDG”, for which the protein production result was “failed”.
Consider “MACEGAPEVRIGRKPVMNYVLAILTTLMEQGTNQVVVKARGRNINRAVDAVEIVRKRFAKNIEIKDIKIDSQEIEVQTPEGQTRTRRVSSIEICLEKAGESA”, for which the protein production entry is recorded as “not failed”.
As for “MACEGRTMISDTYKVRVNLGLCALAAAITLAGCAGLPDQRLANEALKRGDTALAERNYKALADLGYSEAQVGLADIKVATRDPSQIKEAEATYRAAAATSPRAQARLGRLLVAKPDSTQAEREEAETLLKQAAKQGQSNTLIPLAMLYLSYPQSFPKVNAQQQIDQWRAAGNPEAGLAQVLLYRTQGTYDQHLGEVEKICKAALNTTDICYVELATVYQKRGQADQQAALLGQLKSAYARGAVPATRVDSVARVLADRSLGQTDEKTAKELLEQVAPANPASWVSLAQLVYDFPELGDTDQLMAYIDKGREAEQPRAELLLGRLYYEGKTLPADAQKAEQHLQAAAEAGEISAHYYLGQLYRRGYLGNVEPQKAVDHLLAAARGGQNSADYALAQLFSEGHGIRPQPGNAWVFAQLSQANPTPQSAELLQQLDQQLTPDQRNQAQQLLDQEKRARGSLAQGANSTLALEALQDDEKEVDGEDSL”, the protein production entry is “failed”.
With “MACFSDLSKECDMEGCRNHDFLPYKCEYCKLIFCEFHRNAEEHLCSKLKDMELNTVVLCEYCGIVLPDKKEDIQNHLIYKCLYKKKTKSILMCNKRDCKKVLNGINNYICKKCRKSFCLPHRYSDVHNCIKSDEEKSFFKSNIKKNKYILKVTTDGFINTTTHFFNSHTYIVC” the entry was “failed”; with “MACTVDFRCLDEGFGGKTYKRKRESQEQAAAEAIADEASMDIDGAPPAAKRSAVASSENPDKPIALAVERPTYDGVIAGKVSGRNWKQPRTHRSSGRFVKNRKPDLEEMKRQREIKKAYKERVNELKEEIRSNKVEKRKKKEEREKRKKENVLRTGTKLQKITNPKTLKKISMSKKQRKQLKKIPDEMLSGGSKKSITN”, “not failed”.
To “MADADLVMTGTVLTVDDARPTAEAIAVADGRVIAVGDRSEVAGLVGANTRVIDLGAGCVMPGFVEAHGHPLLEAVVLSDRFVDIRPVTMRDADDVVAAIRGEVARRGPAGAYLVGWDPLLQSGLGEPTLTWLDSLAPNGPLVIIHNSGHKAYFNSHAAWLNGLTRDTADPKGAKYGRDGNGELDGTAEEIGAILPLLAGVADPSNFGAMLRAECARLNRAGLTTCSEMAFDPGYRPMVEAVRAELTVRLCTYEISNARMCTDATPGQGDDMLRQVGIKIWVDGSPWVGNIDLTFPYLDTPATRAIGVPPGSRGCANYTREQLAEIVGAYFPRGWQIACHVHGDGGVDTILDVYEEALRRNPRDDHRLRLEHVGAIRPDQLRRAAELGVTCSIFVDQIHYWGDVIVDDLFGAQRGSRWMPAGSAVAAGMRISLHNDPPVTPEEPLRNISVAATRVAPSGRVLAPEERLTVEQAIRAQTIDAAWQLFAEDAIGSLQVGKYADMVVLSADPRTVPPEQIADLAVRATFLAGRQVYRRLEHHHHHH” belongs “failed”.
“MADATRIPDSVTLPELTLRGVLLGALITVIFTASNVFLGLKVGLTFSSAIPAAVISMSVLRMFRDANILENNMVQTQASAAGTLSAIIFILPALVMMGHWQGFPFWQTLAICGAGGMLGVMFTIPLRHIMVVQSDLPYPEGVAAAEILRVGSAEAPDTAPGRRGASGMGDILAGGGVAALVSLATGGLRVLGDSFSWWGQLGASVFRLPMGFSLALLGAGYLIGIVAGVAMLVGLLIAWLVAVPVLTATTPMPDGQSISAFANSLWASQVRFIGAGVIGVGAIWTLATLFMPMVRGVRTSFAAFGRSGEAAYGSAPRTERDLPSRWISLITLALVAVLVGVFAAFLQPAVLSPGARWGLVAYAVVFAFVFGFLVAAACGYMAGLIGSSTSPISGVGIVAIVLVSLLMLAIQRGDGLLATPQGLQMGIALAIFTTSAVVAVASISNDNLQDLKTGWLVGATPWRQQVALLIGCVVGAAVISPVLELLYNAYGFGDALPRPGMDPSQALAAPQATLMLAIAQGIFTHQLNWTMILIGMGVGVALIVIDQVLRRTCRVARLPVLAVGIGIYLPPSASAPIVVGAVLAWLLEGALRRRAAAAGQDYERYAEGPNRRGVLVASGLIVGESLVGVLLAAVIGATGDEAPLAVVGAGFGPTAEWLGFVVFAAVAVWIYRRVVRTRPEQA”: the protein production result was “failed”.
To “MADDDVLFEDVYELCEVIGKGPFSVVRRCINRETGQQFAVKIVDVAKFTSSPGLSTEDLKREASICHMLKHPHIVELLETYSSDGMLYMVFEFMDGADLCFEIVKRADAGFVYSEAVASHYMRQILEALRYCHDNNIIHRDVKPHCVLLASKENSAPVKLGGFGVAIQLGESGLVAGGRVGTPHFMAPEVVKREPYGKPVDVWGCGVILFILLSGCLPFYGTKERLFEGIIKGKYKMNPRQWSHISESAKDLVRRMLMLDPAERITVYEALNHPWLKERDRYAYKIHLPETVEQLRKFNARRKLKGAVLAAVSSHKFNSFYGDPPEELPDFSEDPTSS” belongs “failed”; to “MADDQGRGRRRPLNEDDSSTSRGSGDGPRVKVFRGSSSGDPRADPRIEASRERRALEEAPRREGGPTERKPWGDQYDYLNTRPAELVSKKGTDGVPVMLQTNFFRLKTKPEWRIVHYHVEFEPSIENPRVRMGVLSNHANLLGSGYLFDGLQLFTTRKFEQEITVLSGKSKLDIEYKISIKFVGFISCAEPRFLQVLNLI”, “failed”.
Take “MADFVAASGQLGFWTYCLLMIGSVFSGMTLIGVAGLAFTTGYANVWERIIGPPFAIAFGTILIGYKLFNLKDKNGILTIQDYLAFRYDDPKIIRILAGLISAVTCFVYLIGQYTAIGVVSYVVLGIPYWLGAVIAAVIVVAYVMSGGMFSTAWTTFLQSILMLLGIYVTVPFIIAWVGGFEAMNQALAAMPEIQNATRGVAENFMFAKYLSKPFAPASVPLAGWVYNLTLFGITVPLGLMVAPHIVNNMLTFRKIEYTRWGPLVMYVIGFSAIFLTALAGMAARVAWAKGMIDIPSLTLGSIEVKWSDMAYPTIASKALPYWLFVLLLPTILAGVMSTTDRLILTAANNISYDVLRNALGKNLSENALKKVNMLVVPLIGFGSLLIALFPQQLLAWFIWAALSLMTNCFFFPIMLGLYWDRMTKNAARLSMIAGFVVTLATFAIYGKTIYIAGIPAYSVLPGFVASFVLAVGVSLLEKG”: the protein production entry was “failed”.
To “MADGATAVRRGLSGATRLSARFTADAETGTRQGMQALPTSRRLCASLRSLPERALAMLPAVVLALLPVIAMLLALAPGNARVAEDCALRVEGQARHADDQRIMSTVRALAQALGEVAQATPPDEREAKLIRSISPVRYGEGPWDYVILSRGTVHLYTPGMEGAAGVDFANATDARGVPFVQEMQSRAVLGGGFTEWTARRADGSTETRRVYSLVVPGTEYWLGAWTTPDGATTAKNEARNGVLITADHAAHRAALWGIMAGLPAALVLHRLLTASQRLRQEKDRR” belongs “failed”; to “MADGVLAVSQEGFNTLQSYNVGEKYTADLWIQQGGLKSTASVVSFSVDKALLDSMNIADGTSYELLPADCYQLTKSSVDIPANERLLKGELTYDPAKIQELSGYDHLKYVLPLRATSSGMPFVSGRSVLLLGFKVSEPIVTIMNAGVEEINLAEVKELPVQIGVPFTNKWEISCRLESRQSVIDAYNTAHGTYFSMLPSDAYVTPETPILHSGVNQVTATYKLKDDILPGNYMLPVQIAEVTSDATIRADKDVYAAYSIIKEGDKLSKTDWKIVSFTTEEASGEGSNNGHAKHLIDGNIETFWHSRWQGGSDPLPYEIIIDMNHRVKIAQIELLPRGRGSNNPIKVVRFEASEDGTNWESIGQFGFTNQDAALKYYVKSSTARYIKLVIPDGVGNGTVAAIRELDVRGTVVNLEHHHHHH”, “not failed”; to “MADHSIQGKVALIAGGAKNLGGLIARDLAAHGARAIAIHYNSPASKADADATVAALQAAGAQAVALQGDLTTAAAVEKLYADALAAVGRPDIAINTVGKVLKKPFSEISEAEYDEMAAVNAKSAFFFLKEAGRHVNDHGKIVTLVTSLLGAFTPFYSAYAGTKAPVEHYTRAAAKEFGARGISVTAVGPGPMDTPFFYGQESPEAVAYHQSAAALSPHSPTGLTHIEDVVPFIRHLVSDGWWITGQTLLINGGYTTK”, “not failed”.
As to “MADIKRIALLSGGGDCPGLNAVIRAVTKAAINEYGYEVIGYVYGYRGLYNNDYIELTVDKVENIYKEGGTILYSSNKDNLFDYLVDDGHGGKVKKDVSDVGVENLKKAGVDVLVVLGGDGTLTSARDFARKGVNVIGIPKTMDNDLPATDLTYGFISASSVGTEFIDRLNTTAKSHHRVICCELMGRDAGWIALYAGMAGNASCILIPEIPFTIDSIVRHVEKRDKEGYPYTVIAVAEGAKYADGTKVIGKIVEDSPDPIRLGGIASKVADDLEKVIKNHEVRSVNPGHIIRGGDIQAYDRILSIRFGVKAVELIHEGKFGNVVTLKGEEMSYTSLEEVIGDAKFGKQKHVDPNGELVRAAKSIGICFGDD”, the protein production result was “failed”.
Take “MADKIKVSLLGSTGMVGQKMVKMLAKHPYLELVKVSASPSKIGKKYKDAVKWIEQGDIPEEVQDLPIVSTNYEDHKDVDVVLSALPNELAESIELELVKNGKIVVSNASPFRMDPDVPLINPEINWEHLELLKFQKERKGWKGILVKNPNCTAAIMSMPIKPLIEIATKSKIIITTLQAVSGAGYNGISFMAIEGNIIPYIKGEEDKIAKELTKLNGKLENNQIIPANLDSTVTSIRVPTRVGHMGVINIVTNERINIEEIKKTLKNFKSLPQQKNLPTAPKQPIIVRDEEDRPQPIIDVNAESGMAVTVGRIRHENNVLRLVVLGDNLVRGAAGITILTVEVMKELGYI”: the protein production entry is “not failed”.
With “MADLALLVLTLLWGTTFALVKEALEIASPGVFLTARFGLAAVALLAAWALRPRAPLGDGFWRHGILLGLTMLVGFVLQTVALRHTTPARSGFITGLNVLVVPVVARWFLGRRVRPAFWVGVAFALAGLVMLTRPFTPGAVTEEVRFGDLLTLFCAVAYGLQVTFTSEWAPRHPLAPFVAVQVLVTLAGALVLAPLEGPRFDPAGAGHFALVVAFTGLVMTALAFFVMNWGQRHTTAVRAALIFSLEPAAAAVFSWLYYGEPLGPLDWAGGALMVLGVVAGEVGGVLEARAPRRARGERASTGPG” the entry was “failed”.
To “MADLRLEREFAVAPEALFAWVSDGAKLLQWWGPEGLHVPADQHDLDFTRLGPWFSVMVNGEGQRYKVSGQVTHVKPPQSVGFTWGWHDDDDRRGAESHVMFIVEPCAKGARLILDHRELGDDEMSLRHEEGWTSSLRKLAAELALEHHHHHH” belongs “not failed”; to “MADNGQADRKERSNGVIVGTCLAFVAGMIGMAYAAVPLYDMFCRVTGYNGTTQRVEQASDLILDEKIKVTFDANVAAGLPWEFVPVQRDIDVRIGETVQIMYRAKNLASTPTTGQATFNVTPMAAGAYFNKVQCFCFTETTLEPGEEMEMPVVFFVDPEIVKPVETQGIKTLTLSYTFYPREPSKPVAQVKAKAENKL”, “not failed”.
